Biological target: 4Ig-B7H3, the 4Ig domain isoform of the human B7-homolog 3 (human) (UniProt Q5ZPR3)
Experiment: Immunoaffinity capture from LAN-1 lysate or membrane fraction on 8H9-protein G Sepharose, followed by Western blot

Sequence of UniProt Q5ZPR3 (Q5ZPR3 29-534 limits assumed, form in doubt): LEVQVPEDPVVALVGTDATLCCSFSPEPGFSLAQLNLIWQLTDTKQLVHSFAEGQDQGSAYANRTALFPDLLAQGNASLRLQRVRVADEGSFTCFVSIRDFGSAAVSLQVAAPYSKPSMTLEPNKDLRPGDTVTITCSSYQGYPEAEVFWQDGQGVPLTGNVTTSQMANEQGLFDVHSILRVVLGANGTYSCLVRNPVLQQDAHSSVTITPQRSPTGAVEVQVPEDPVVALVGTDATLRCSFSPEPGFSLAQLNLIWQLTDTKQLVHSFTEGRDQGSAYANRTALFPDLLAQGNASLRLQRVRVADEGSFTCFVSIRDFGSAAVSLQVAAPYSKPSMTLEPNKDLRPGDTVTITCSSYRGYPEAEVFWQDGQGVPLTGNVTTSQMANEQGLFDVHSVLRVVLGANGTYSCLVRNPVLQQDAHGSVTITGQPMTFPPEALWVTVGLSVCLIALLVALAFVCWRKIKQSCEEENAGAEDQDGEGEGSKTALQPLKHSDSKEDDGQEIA

portion of 8H9 antigen bound to the Sepharose: > 50%
Substance: monoclonal antibody 8H9
